Measurements from publication PMC6327505, “Adaption to glucose limitation is modulated by the pleotropic regulator CcpA, independent of selection pressure strength”.

Target: T1, CcpA-Ile19 (evolved, 445C1) (Lactococcus lactis MG1363 (evolved …, UniProt A2RJC5 1-332, M19I))
T1 sequence: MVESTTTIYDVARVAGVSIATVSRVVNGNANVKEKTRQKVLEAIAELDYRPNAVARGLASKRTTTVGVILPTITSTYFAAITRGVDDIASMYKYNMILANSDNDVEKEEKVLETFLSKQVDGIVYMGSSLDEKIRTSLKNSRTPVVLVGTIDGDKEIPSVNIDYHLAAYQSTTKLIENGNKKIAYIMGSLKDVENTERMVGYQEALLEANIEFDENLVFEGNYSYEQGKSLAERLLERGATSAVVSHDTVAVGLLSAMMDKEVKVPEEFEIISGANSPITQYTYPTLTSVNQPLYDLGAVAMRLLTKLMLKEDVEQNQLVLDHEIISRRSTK
Assay: EMSA; 100-800 nM CcpA, 4 nM DNA; affinity increased vs Met19, least pronounced; EMSA: 20 mM Tris-HCl pH 8, 100 mM KCl, 10 mM MgCl2, 1 mM EDTA, 1 mM DTT, 5% glycerol, 40 ug/ml BSA, 4 nM Cy3-DNA, 30 C 20 min; 7.5% native PAGE in TBE
Conditions: protein: recombinant; tags: N-terminal 6xHis (pQE30); chain copies: 2; label: 5'-Cy3 on (+) strand; blunt

B1: mtlD cre (dsDNA)
DNA 1: ACCACAATGTAAAAGCTTACAATTGCT
DNA 2: AGCAATTGTAAGCTTTTACATTGTGGT
B1: binds.
